Data as given in the Human Domainome abundance scans (Beltran et al. 2025).

B1: Tesmin, residues 368 to 403; numbered along this chain, Q9Y4I5 (parent)
chain: KGCNCRRSGCLKNYCECYEAQIMCSSICKCIGCKNY
B2: POU domain, class 3, transcription factor 4, residues 280 to 335; numbered along this chain, P49335 (parent)
chain: KKRTSIEVSVKGVLETHFLKCPKPAAQEISSLADSLQLEKEVVRVWFCNRRQKEKR

Variants of: B1
Assay: abundance fitness (aPCA) (normalised: wild type 0, dead -1); higher = more abundant; growth selection in yeast, the domain comes from the species named
Details: Homo sapiens

Abundance fitness: each site, then its substitutions
G32: L -0.96 | P -0.082 | Q -0.414 | R -0.249 | S -0.087 | T -0.655 | V -0.443 | W -0.349
C33: A -0.011 | D -0.064 | E 0.109 | G -0.025 | H -0.106 | K -0.123 | L -0.232 | M -0.147 | P -0.014 | Q -0.362 | R -0.245 | S -0.121 | T -0.14 | V -0.055 | W -0.449
K34: A 0.185 | C 0.064 | D 0.295 | E 0.182 | G 0.266 | I -0.503 | L 0.121 | N 0.06 | P 0.161 | Q -0.107 | S 0.073 | T 0.057 | V 0.152 | W 0.003
N35: A 0.141 | C -0.384 | D 0.18 | E 0.11 | F -0.614 | G 0.211 | K -0.44 | L -0.861 | P -0.055 | Q 0.114 | R -0.019 | S -0.023 | T -0.167 | V -0.362 | W -0.233 | Y -0.64
Y36: A 0.209 | D 0.145 | G 0.193 | I 0.371 | K -0.317 | L -0.05 | N 0.02 | P 0.31 | R 0.305 | S -0.016 | T 0.15 | V 0.286 | W 0.02

Variants of: B2
Assay: as above
Details: Homo sapiens

Abundance fitness: each site, then its substitutions
K1: D -0.185 | E -0.049 | G -0.243 | M -0.03 | R -0.312 | S -0.132 | W 0.033
K2: A -0.433 | C -0.8 | D -0.342 | E -0.526 | H -0.258 | L -0.093 | M -0.201 | N -0.058 | P -0.559 | Q -0.637 | R -0.225 | S -0.161 | T -0.277 | V -0.124 | Y -0.159
R3: A -0.162 | C 0.174 | F -0.226 | G 0.077 | H -0.277 | I 0.104 | K 0.03 | L 0.306 | M 0.011 | N 0.033 | P 0.122 | Q -0.354 | S 0.261 | T 0.205 | V -0.15 | W -0.706 | Y 0.069
T4: A -0.145 | C -0.249 | D 0.34 | E 0.034 | F -0.26 | G -0.189 | H -0.925 | I 0.067 | K 0.011 | L -0.021 | M 0.108 | P -0.178 | R -0.419 | S 0.213 | W -0.486 | Y -0.248
S5: A 0.11 | C 0.2 | D 0.405 | E 0.565 | F -0.155 | G 0.27 | H -0.187 | I -0.107 | K 0.226 | L -0.045 | M 0.289 | N 0.216 | P -0.158 | Q 0.268 | T 0.217 | V 0.275 | W -0.162
I6: A -0.437 | C -0.626 | D -0.249 | E -0.303 | F -0.397 | G -0.197 | H -0.128 | L 0.018 | N -0.249 | P -0.169 | Q -0.123 | R -0.292 | S -0.152 | T -0.201 | V -0.215 | W -0.244 | Y -0.613
E7: A -0.082 | D 0.327 | F -0.513 | G 0.381 | H 0.105 | I -0.357 | K 0.271 | L -0.163 | M -0.191 | P 0.607 | Q 0.013 | R -0.093 | S 0.528 | T 0.526 | V -0.362 | W -0.014 | Y -0.285
V8: A 0.354 | C -0.326 | D 0.006 | E 0.623 | G 0.49 | H 0.07 | I 0.04 | K 0.842 | L 0.293 | M 0.527 | N 1.06 | P 0.736 | Q 0.405 | R 0.362 | S 0.546 | T 0.307 | W -0.045 | Y 0.231
S9: A -0.056 | C -0.017 | D 0.539 | E 0.443 | F -0.348 | G 0.172 | H 0.277 | K 0.237 | L -0.24 | M -0.392 | N 0.52 | P -0.335 | T 0.008 | V -0.173
V10: A 0.393 | C -0.486 | E 0.262 | G -0.751 | H -0.133 | I 0.08 | K -0.12 | L -0.472 | M 0.058 | N -0.279 | Q -0.193 | R -0.731 | S -0.587 | T -0.21 | Y -0.503
K11: A 0.778 | D 0.119 | G -0.645 | H -0.207 | M 0.17 | Q 0.14 | R -0.076 | S -0.498 | V -0.117
G12: A -0.177 | D 0.288 | K -0.009 | L 0.004 | Q 0.103 | R -0.219 | S 0.298 | V -0.034
V13: A -0.082 | C -0.454 | D -0.518 | E -0.182 | F -0.315 | G -0.662 | H -0.407 | I -0.235 | L -0.02 | M 0.18 | Q 0.205 | R -0.215 | S -0.038 | T -0.502 | W -0.745 | Y -0.354
L14: A -0.955 | C -0.563 | D -0.825 | F -0.887 | G -0.891 | H -0.983 | I -0.607 | K -0.655 | M -0.623 | N -0.564 | Q -0.953 | R -0.792 | S -0.693 | T -0.537 | V -0.788 | Y -1.08
E15: A -0.539 | C -0.947 | D -0.998 | F -0.681 | G -0.881 | H -0.873 | I -0.368 | K -0.728 | L -0.645 | N -0.885 | P -0.659 | Q -0.789 | R -0.985 | S -0.845 | T -0.82 | V -0.756 | W -1.04 | Y -1.23
T16: A 0.197 | C -0.283 | D 0.157 | E 0.368 | G 0.041 | I -0.428 | K 0.572 | L -0.304 | M -0.214 | N -0.223 | P -0.839 | Q 0.044 | R 0.059 | S 0.217 | V -0.504 | W -0.347 | Y -0.306
H17: A 0.085 | C -0.497 | D -1 | E -0.172 | G -0.662 | I -0.542 | L -0.401 | M -0.019 | N -0.458 | P -0.957 | R -0.845 | S -0.262 | T -0.464 | V -0.017 | W -0.159 | Y 0.386
F18: A -0.891 | C -0.745 | D -0.814 | E -0.851 | G -0.741 | H -0.251 | I -0.851 | K -0.461 | L -1.03 | M -0.893 | N -0.859 | P -0.992 | Q -1.16 | R -0.812 | S -0.719
